This note sets out measurements from PMC4660579.

As a reminder, the stoichiometry N is a count of units in the complex or per binding partner.

The target in the assay is Drosophila melanogaster glutathione transferase epsilon 6 (Drosophila melanogaster). Nature of the assay: crystal structure; DmGSTE6 at 15-20 mg/ml with 10 mM GSH, 20% PEG3350, 0.2 M sodium thiocyanate, sitting drop vapour diffusion at 288 K; 1.72 Å; homodimer.

For the substance “Drosophila melanogaster glutathione transferase epsilon 6 (enzyme)”, the stoichiometry N came to 2.
